In article PMC12865133, “Macrocyclic Molecular Glues for the 14‐3‐3/ChREBP Interaction: Affinity and Cooperativity in an Inverse Relationship” (Angewandte Chemie (International Ed. in English), 2025):
Where no end group is shown, it is not given here. [ ]: non-standard residue; d: D form. pT = C[C@@H](OP(=O)(O)O)[C@H](N)C(=O)O; pS = N[C@@H](COP(=O)(O)O)C(=O)O

What was measured:
Details in all cases: both partners purified
14-3-3γ = target: T1, 14-3-3γ (UniProt P61981 1-247); assay: fluorescence polarisation; fluorescence anisotropy; 14-3-3γ titrated to FITC-labeled macrocycles F1-F4 and pepD (10 nM); mean ± SD, n = 3
T1 construct: 14-3-3 protein, gamma isoform; also called 14-3-3 protein
T1 sequence (looked up): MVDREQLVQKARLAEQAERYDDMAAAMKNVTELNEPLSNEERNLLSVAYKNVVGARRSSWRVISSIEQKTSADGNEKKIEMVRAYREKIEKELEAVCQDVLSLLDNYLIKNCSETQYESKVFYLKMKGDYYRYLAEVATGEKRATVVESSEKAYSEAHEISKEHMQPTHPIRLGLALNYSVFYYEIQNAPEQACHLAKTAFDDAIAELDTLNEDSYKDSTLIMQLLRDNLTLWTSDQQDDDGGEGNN

[1] = target: T2, full-length human 14-3-3β protein with a N-terminal His6 tag (human, UniProt P31946 1-246); assay: fluorescence polarisation; selectivity assay by fluorescence anisotropy: acetylated 14-3-3 client peptides titrated (from 100 μM, 2-fold) to 10 nM FITC-labeled macrocycle F2 or F4 bound to 14-3-3β (7 μM for 2, 2 μM for 4); 10 mM HEPES pH 7.4, 150 mM NaCl, 0.1% Tween20, 0.1% BSA; room temperature
T2 construct: 14-3-3 protein beta/alpha, human, full length; Treated as a dimer in the thermodynamic model (Pp = 14-3-3 dimer); also called Pp (14-3-3 dimer); source: E. coli BL21(DE3), pPROEX HTb, purified (Ni-NTA, dialysis)
T2 sequence (looked up): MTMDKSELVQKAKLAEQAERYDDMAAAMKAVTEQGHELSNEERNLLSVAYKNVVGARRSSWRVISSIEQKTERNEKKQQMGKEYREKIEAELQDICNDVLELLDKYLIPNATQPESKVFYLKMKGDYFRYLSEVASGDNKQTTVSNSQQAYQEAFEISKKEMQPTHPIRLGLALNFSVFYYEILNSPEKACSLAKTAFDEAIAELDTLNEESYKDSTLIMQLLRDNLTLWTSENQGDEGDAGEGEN

[2] = target: T2, full-length human 14-3-3β protein with …; assay: fluorescence polarisation; 2D fluorescence anisotropy titration, replicate 1: 14-3-3β titrated (from 250 µM) to FITC-labeled macrocycle or pepD with varying ChREBP peptide starting at 20 μM; KD I (binary affinity of the macrocycle for a site of the 14-3-3 dimer) fitted by the thermodynamic cooperativity model with KD II fixed at 1.5 µM; 10 mM HEPES pH 7.4, 150 mM NaCl, 0.1% Tween20, 0.1% BSA; room temperature
[3] = target: T2, full-length human 14-3-3β protein with …; assay: fluorescence polarisation; 2D fluorescence anisotropy titration, replicate 2: 14-3-3β titrated (from 250 µM) to FITC-labeled macrocycle or pepD with varying ChREBP peptide starting at 10 μM; KD I (binary affinity of the macrocycle for a site of the 14-3-3 dimer) fitted by the thermodynamic cooperativity model with KD II fixed at 1.5 µM; 10 mM HEPES pH 7.4, 150 mM NaCl, 0.1% Tween20, 0.1% BSA; room temperature

Row | Binder | Kd (14-3-3γ) [µM] | binding result [1] | Kd [2] [µM] | further results
1 | SFSXFKXK (not fully specified; fluorescein isothiocyanate (FITC) on the side chain of the first lysine; β-alanine after it; phosphoserine; triazole from azido phenylalanine (replacing Nph(+1)) cyclised to the backbone amide nitrogen between Lys(+5) and Nph(+4), linker x = 4; β-homoSer(+2); β-Ala(+3); 4-nitrophenylalanine Nph(+4)) [macrocycle F4] | 2.1 | – | – | –
2 | Ac-HVRSH[pS]SPASLQLG (TAZ, 14-3-3 client peptide; No C-terminal group is printed for this peptide; source: synthetic peptide, bought: GenScript Biotech Corp) [TAZ client peptide] | – | binds | – | –
3 | SFSXFKXK (not fully specified; fluorescein isothiocyanate (FITC) on the side chain of the first lysine; β-alanine after it; phosphoserine; triazole from azido phenylalanine (replacing Nph(+1)) cyclised to the backbone amide nitrogen between Lys(+5) and Nph(+4), linker x = 2; β-homoSer(+2); β-Ala(+3); 4-nitrophenylalanine Nph(+4)) [macrocycle F2] | 5.7 | – | – | –
4 | Ac-KRRRK[pS]CQA-NH2 (SMILES CC(=O)N[C@@H](CCCCN)C(=O)N[C@@H](CCCNC(=N)N)C(=O)N[C@@H](CCCNC(=N)N)C(=O)N[C@@H](CCCNC(=N)N)C(=O)N[C@@H](CCCCN)C(=O)N[C@@H](COP(=O)(O)O)C(=O)N[C@@H](CS)C(=O)N[C@@H](CCC(N)=O)C(=O)N[C@@H](C)C(N)=O, ERRγ (estrogen-related receptor gamma), 14-3-3 client peptide; source: synthetic peptide, bought: GenScript Biotech Corp) [ERRγ client peptide] | – | binds | – | –
5 | SFSXFKXK (not fully specified; phosphoserine; Phe(+1) triazole cyclised to the backbone amide nitrogen of Lys(+5) through a linker x = 2 (from 3-butyn-1-ol); β-homoSer(+2); β-Ala(+3); Nph(+4); β-Ala and a lysine whose side chain carries fluorescein isothiocyanate (FITC) after Lys(+5)) [fluorescently labeled macrocycle F2] | – | – | 12.6 | Kd [3]: 11.9 µM
6 | SFSXFKXK (not fully specified; fluorescein isothiocyanate (FITC) on the side chain of the first lysine; β-alanine after it; phosphoserine; triazole from azido phenylalanine (replacing Nph(+1)) cyclised to the backbone amide nitrogen between Lys(+5) and Nph(+4), linker x = 3; β-homoSer(+2); β-Ala(+3); 4-nitrophenylalanine Nph(+4)) [macrocycle F3] | 0.23 | – | – | –
7 | Ac-KLKRSY[pS]SPDITQ-NH2 (SMILES CC[C@H](C)[C@H](NC(=O)[C@H](CC(=O)O)NC(=O)[C@@H]1CCCN1C(=O)[C@H](CO)NC(=O)[C@H](COP(=O)(O)O)NC(=O)[C@H](Cc1ccc(O)cc1)NC(=O)[C@H](CO)NC(=O)[C@H](CCCNC(=N)N)NC(=O)[C@H](CCCCN)NC(=O)[C@H](CC(C)C)NC(=O)[C@H](CCCCN)NC(C)=O)C(=O)N[C@H](C(=O)N[C@@H](CCC(N)=O)C(N)=O)[C@@H](C)O, USP8, 14-3-3 client peptide; source: synthetic peptide, bought: GenScript Biotech Corp) [USP8 client peptide] | – | binds | – | –
8 | SFSXFKXK (not fully specified; phosphoserine; Phe(+1) triazole cyclised to the backbone amide nitrogen of Lys(+5) through a linker x = 1 (from propargyl alcohol); β-homoSer(+2); β-Ala(+3); Nph(+4); β-Ala and a lysine whose side chain carries fluorescein isothiocyanate (FITC) after Lys(+5)) [fluorescently labeled macrocycle F1] | – | – | 71 | Kd [3]: 73 µM
9 | Ac-EGFPA[pT]V-OH (SMILES CC(=O)N[C@@H](CCC(=O)O)C(=O)NCC(=O)N[C@@H](Cc1ccccc1)C(=O)N1CCC[C@H]1C(=O)N[C@@H](C)C(=O)N[C@H](C(=O)N[C@H](C(=O)O)C(C)C)[C@@H](C)OP(=O)(O)O, ERα (estrogen receptor alpha), 14-3-3 client peptide; source: synthetic peptide, bought: GenScript Biotech Corp) [ERα client peptide] | – | binds | – | –
10 | SFSXFKXK (not fully specified; phosphoserine; Phe(+1) triazole cyclised to the backbone amide nitrogen of Lys(+5) through a linker x = 4 (from 5-hexyn-1-ol); β-homoSer(+2); β-Ala(+3); Nph(+4); β-Ala and a lysine whose side chain carries fluorescein isothiocyanate (FITC) after Lys(+5)) [fluorescently labeled macrocycle F4] | – | – | 5 | –
